The record followed here is US20170233490A1 (Hoffmann-La Roche, published 2017).

One assay deals with T1, TtSlyD-FKBP-Her3.
T1 construct: N-terminal Met present or not; also called thermo SlyD-Her3; ttSlyD-Her3
T1 chain: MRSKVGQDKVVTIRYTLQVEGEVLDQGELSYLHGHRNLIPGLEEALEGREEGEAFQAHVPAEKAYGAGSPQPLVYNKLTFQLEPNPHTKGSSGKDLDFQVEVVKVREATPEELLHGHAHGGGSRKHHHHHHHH
Description: SPR Biacore 3000, antibody captured, 25 C.

In assay [1] the target is T2, human HER4 Extracellular Domain (ECD) (human, UniProt Q15303 26-651).
T2 construct: also called Her4 ECD; HER4-ECD
T2 sequence: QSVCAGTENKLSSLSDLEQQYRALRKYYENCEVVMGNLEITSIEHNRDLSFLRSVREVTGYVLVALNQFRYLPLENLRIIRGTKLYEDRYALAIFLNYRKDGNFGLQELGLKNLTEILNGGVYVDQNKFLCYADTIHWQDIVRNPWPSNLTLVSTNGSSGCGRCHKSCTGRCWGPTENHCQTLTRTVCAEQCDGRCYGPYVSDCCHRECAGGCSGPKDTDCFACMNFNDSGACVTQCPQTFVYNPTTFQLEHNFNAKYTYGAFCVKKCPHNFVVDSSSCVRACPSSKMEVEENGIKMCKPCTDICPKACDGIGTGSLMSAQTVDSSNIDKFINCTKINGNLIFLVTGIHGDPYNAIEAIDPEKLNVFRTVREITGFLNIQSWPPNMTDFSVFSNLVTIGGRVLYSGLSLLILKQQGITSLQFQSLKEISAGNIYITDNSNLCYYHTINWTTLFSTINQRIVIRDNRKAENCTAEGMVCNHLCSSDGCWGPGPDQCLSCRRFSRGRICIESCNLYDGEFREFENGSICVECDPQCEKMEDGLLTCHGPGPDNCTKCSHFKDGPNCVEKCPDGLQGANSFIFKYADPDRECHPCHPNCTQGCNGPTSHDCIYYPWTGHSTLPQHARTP
Nature of the assay: SPR Biacore T100, antibody captured, 25 C; SPR at 25 C, antibody captured, HER4-ECD without HRG. The procedure:
A CM5 series sensor was mounted into the system and was normalized in HBS-ET buffer (10 mM HEPES pH 7.4, 150 mM NaCl, 3 mM EDTA, 0.005% w/v Tween 20) according to the manufacturer's instructions. The sample buffer was the system buffer supplemented with 1 mg/ml CMD (Carboxymethyldextran, Sigma #86524). The system operated at 25° C. 6500 RU RAM-Fcγ (relative units of Fcγ-fragment RamIgG, GE Healthcare) were immobilized according to the manufacturer's instructions using EDC/NHS chemistry on all four flow cells. The sensor was deactivated using 1M ethanolamine.
The binding activity of the respective antibody against the analytes was kinetically tested. Antibodies were captured at 35 nM concentration by a 1 min injection at 5 μl/min. The flow rate was set to 100 μl/min.
Analytes in solution were injected at different concentration steps of 0 nM, 1.1 nM, 3.7 nM, 11.1 nM, 33.1 nM and 90 nM for 3.5 min. The dissociation was monitored for 15 min. Where possible, kinetic signatures were evaluated according to a Langmuir fit.

Another assay addresses T3, HER3 ECD-HRG complex (human, UniProt P21860 20-643).
T3 construct: HER3 ECD preincubated with a 3- to 6-fold molar excess of Heregulin ('open' conformation); biotinylated Her3-ECD in the ribosome display; also called HER3-ECD/HRG1β
Nature of the assay: SPR Biacore 3000, antibody captured, 25 C. The procedure: A CMS series sensor was mounted into the system and was normalized in HBS-ET buffer (10 mM HEPES pH 7.4, 150 mM NaCl, 3 mM EDTA, 0.005% w/v Tween 20) according to the manufacturer's instructions. The sample buffer was the system buffer supplemented with 1 mg/ml CMD (Carboxymethyldextran). The system operated at 25° C. 10000 RU RAM-Fcγ (relative units of Fcγ-fragment Rabbit Anti-Mouse IgG/Jackson Laboratories) were immobilized according to the manufacturer's instructions using EDC/NHS chemistry on all flow cells. The sensor was deactivated using 1M ethanolamine. Analytes in solution were injected at 100 μl/min at different concentration steps of 0 nM, 1.1 nM, 3.7 nM, 11.1 nM, 33.1 nM and 90 nM for 2 min. The dissociation was monitored for 5 min. Acidic regeneration of the sensor surface was achieved using three consecutive injections of 10 mM Glycine pH 1.7 at 30 μl/min for 60 sec. Kinetic data were evaluated according to a Langmuir fit.

B1: anti-HER3/HER4 antibody M-05-74 (antibody, V domains shown)
VH: QVQLQQSGAELAKPGASVKMSCKTSGYTLTDYWIHWVKQRPGQGLEWIGYINPYTGYTESNQKFKDKATLTADKSSNTAYIQLSSLTSEDSAVYYCARPYYYGDYWGQGTTLTVSS
VL: QIVLTQSPAIMSASPGERVTITCSASSSVSYMHWFQQKPGTSPKLLIYSTSNLASGVPARFSGSGSGTSYSLTISRMEAEDAATYYCQQRSSYPFTFGSGTKLEIK
notes: murine monoclonal IgG from hybridoma (supernatant or purified), bivalent; also called M-074; M-5-74
On to B1, for which the Kd with TtSlyD-FKBP-Her3 was determined as 27 nM. In assay [1], this molecule returned a Kd of 150 nM, a koff of 0.001 s⁻¹ and a kon of 6700 M⁻¹ s⁻¹. In addition, in the assay with HER3 ECD-HRG complex, the “BL (Binding Late)” value stood at 199 RU, the “MR (Molar Ratio)” value amounted to 0.8, the kon came to 66000 M⁻¹ s⁻¹ and the t/2-diss worked out at 18 min.
